Measurements taken from PMC3154637 (Structure (London, England : 1993), 2011).
Blank lines part the entries; values can stand above or below the binder they belong to.

Key:
[1] = target: His-AMSHΔC-K88A (human, UniProt O95630 1-146, K88A); test: pull-down
[2] = target: MBP-AMSH(1–206) (human, UniProt O95630 1-206); test: SPR

binding result [1]: binds
B1: GST-CHMP1BΔN (domain or fragment, UniProt Q7LBR1 126-199, looked up)
chain: DVQTQQMEDTMSSTTTLTTPQNQVDMLLQEMADEAGLDLNMELPQGQTGSVGTSVASAEQDELSQRLARLRDQV

Kd [2]: 1490 nM
koff [2]: 0.00581 s⁻¹
kon [2]: 3890 M⁻¹ s⁻¹
B2: GST-CHMP1AΔN (domain or fragment, UniProt Q9HD42 123-196, looked up)
chain: DVHTSVMEDSMSSATTLTTPQEQVDSLIMQIAEENGLEVLDQLSQLPEGASAVGESSVRSQEDQLSRRLAALRN
